{"source": "FireProtDB (doi:10.1021/bi000176d)", "conditions": "Homo sapiens, pH 7, 25 °C, Sodium phosphate 20 mM, NaCl 100 mM, transition: 3, reversible: yes, whole UniProt chain shown", "note": "Several values for one entry are separate records, joined by “and”; a condition that tells them apart may be missing. Identical values can stand only once.", "data": [{"protein": "Glutathione S-transferase A1 wild type, P08263 (protein) MAEKPKLHYFNARGRMESTRWLLAAAGVEFEEKFIKSAEDLDKLRNDGYLMFQQVPMVEIDGMKLVQTRAILNYIASKYNLYGKDIKERALIDMYIEGIADLGEMILLLPVCPPEEKDAKLALIKEKIKNRYFPAFEKVLKSHGQDYLVGNKLSRADIHLVELLYYVEELDSSLISSFPLLKALKTRISNLPTVKKFLQPGSPRKPPMDEKSLEEARKIFRF", "values": [{"measurement": "denaturant midpoint (higher = more stable)", "setting": "GdnHCl, Absorbance", "result": "1.5 M and 1.3 M and 2.3 M"}, {"measurement": "unfolding free energy", "setting": "GdnHCl, Absorbance", "result": "8.96 kcal/mol and 10.2 kcal/mol and 11.8 kcal/mol"}, {"measurement": "denaturant m value", "setting": "GdnHCl, CD", "result": 4.8, "unit": "kcal/mol/M"}, {"measurement": "denaturant midpoint (higher = more stable)", "setting": "GdnHCl, CD", "result": 2.2, "unit": "M"}, {"measurement": "unfolding free energy", "setting": "GdnHCl, CD", "result": 17, "unit": "kcal/mol"}, {"measurement": "denaturant midpoint (higher = more stable)", "setting": "GdnHCl, Fluorescence", "result": "1.8 M and 1.1 M and 2.4 M"}, {"measurement": "denaturant m value", "setting": "Urea, Absorbance", "result": "2.12 kcal/mol/M and 2.31 kcal/mol/M"}, {"measurement": "denaturant midpoint (higher = more stable)", "setting": "Urea, Absorbance", "result": "4.8 M and 4.1 M"}, {"measurement": "unfolding free energy", "setting": "Urea, Absorbance", "result": "14 kcal/mol and 12.7 kcal/mol"}, {"measurement": "denaturant m value", "setting": "Urea, CD", "result": "3.38 kcal/mol/M and 3.67 kcal/mol/M"}, {"measurement": "denaturant midpoint (higher = more stable)", "setting": "Urea, CD", "result": "5.3 M and 4.8 M"}, {"measurement": "unfolding free energy", "setting": "Urea, CD", "result": "19.6 kcal/mol and 17.1 kcal/mol"}]}]}
